Experimental data: patent publication US20060217308A1, “Compositions for the treatment of tumor pathologies, comprising internalin B (ln1B) of Listeria monocytogene protein or a fragment thereof” (priority 2005, published 2006)

Key:
[1] = system: Met; assay: In1B-induced ubiquitination of Met (anti-Met immunoprecipitation, anti-ubiquitin blot) in HeLa cells; type: cell-based, human
Protocol: (A) Listeria monocytogenes EGD (BUG600) (MOI 25) or purified In1B (5 nM) were added (+) for two minutes to HeLa cells. Samples were immunoprecipitated against Met and blotted against ubiquitin using P4D1 monoclonal antibody. (B) In1B was added to HeLa cells for two minutes and samples were re-immunoprecipitated against Met. Samples were blotted against ubiquitin (Ub) or Met. (C) Increasing amounts of In1B were added to HeLa cells (1 to 6 corresponding to 0, 0.22, 0.44, 0.88, 1.75, […], 5 nM respectively) for two minutes. Extracts were immunoprecipitated against Met and blotted against Met or ubiquitin (Ub). (D) As C, but 1 to 6 correspond to 0, 3.5, 10, 20, 40, 80 nM In1B, respectively. (E) 5 nm of purified In1B was added to HeLa cells for the indicated times. Cell extracts were immunoprecipitated (IP) against Met and blotted (WB) against Met or ubiquitin (Ub). At the left of all panels the molecular weight markers are indicated in kDa. In C and D, 8% acrylamide gels were used, while 10% acrylamide gels were used in A, B, and E.
Cells, bacteria and growth conditions. The human cell line used was HeLa (ATCC number CCL-2) grown as recommended by ATCC. Typically, cells were serum starved for three hours before the addition of In1B. The bacterial strains used were Listeria monocytogenes BUG600 and BUG1461. They were grown in BHI medium, which in the case […] contained 5 μg/ml of erythromycin.
Assays. Immunoprecipitation, Re-immunoprecipitation, and immunoblots were performed as described before (31). In1B purification was performed as described (54).
It has been previously described that the ubiquitin ligase Cbl is recruited to the Met complex during the first minute after cell treatment with soluble In1B (31). Whether Listeria infection promotes ubiquitination of Met was studied. Epithelial HeLa cells were infected with Listeria monocytogenes (at a m.o.i. 25) or treated with purified In1B (5 nM) (FIG. 1A) for two minutes. Cellular extracts were immunoprecipitated using an antibody that recognizes Met and ubiquitination of immunoprecipitated proteins was tested with an anti-ubiquitin antibody. A clear increase in the amount of ubiquitinated proteins associated with Met was detected after infection with Listeria.
To assess whether the signal observed after In1B treatment corresponded to Met ubiquitination, a re-immunoprecipitation assay was performed. Anti-Met immunoprecipitates from cells samples treated (or not) with In1B were denatured (boiled in presence of 1% SDS), to dissociate Met complexes, and re-immunoprecipitated using anti-Met antibodies. The resulting samples were immunoblotted against ubiquitin (FIG. 1B left panel) and Met (FIG. 1B right panel). Ubiquitin was only detectable in the lane corresponding to In1B treated samples, whereas Met was present in both lanes corresponding to In1B-treated or non-treated samples.
In order to determine the minimal amount of In1B necessary to trigger Met ubiquitination, HeLa cells were treated with increasing amount of In1B for two minutes. Cell extracts were then immunoprecipitated using the anti-Met antibody and blotted with anti ubiquitin or anti Met antibodies (FIGS. 1C and 1D). 1.75 nM of In1B was sufficient to induce ubiquitination of Met. […] Note that ubiquitinated Met migrated slower and than non-ubiquitinated in 8% acrylamide SDS-PAGE gels (FIGS. 1C and 1D), in agreement with an increase in apparent molecular weight of ubiquitinated proteins. Again, Met detection was always weaker after ubiquitination, supporting the previous observation that ubiquitination of Met was leading to Met degradation.
Next, the kinetics of In1B-dependent ubiquitination of Met were tested. In1B (5 nM) was added during increasing time periods to HeLa cells and cell extracts were immunoprecipitated using anti-Met antibodies (FIG. 1E). In1B-induced ubiquitination was maximal two minutes after treatment and declined thereafter. […]

[2] = system: Met; assay: Kinetics of phosphorylation of Met after In1B (IP Met, blot phospho-tyrosine); type: cell-based, human; conditions: HeLa cells, In1B 5 nM (FIG. 8)
Protocol: FIG. 8 depicts the kinetics of phosphorylation and ubiquitination of Met. 5 nm of purified In1B was added to HeLa cells for the indicated times. Cell extracts were immunoprecipitated (IP) against Met and blotted (WB) against phospho-tyrosine (P-Tyr), Met or ubiquitin (Ub).
Ligand-induced ubiquitination of RTKs is preceded by phosphorylation of the receptor, which is then recognized and ubiquitinated by the ubiquitin ligase Cbl (33). As previously shown (27), In1B rapidly stimulates Met phosphorylation and the kinetics of ubiquitination of Met follows that of phosphorylation with a maximum at two minutes after stimulation (FIG. 8).

Sequence of Met (P08581 25-1390): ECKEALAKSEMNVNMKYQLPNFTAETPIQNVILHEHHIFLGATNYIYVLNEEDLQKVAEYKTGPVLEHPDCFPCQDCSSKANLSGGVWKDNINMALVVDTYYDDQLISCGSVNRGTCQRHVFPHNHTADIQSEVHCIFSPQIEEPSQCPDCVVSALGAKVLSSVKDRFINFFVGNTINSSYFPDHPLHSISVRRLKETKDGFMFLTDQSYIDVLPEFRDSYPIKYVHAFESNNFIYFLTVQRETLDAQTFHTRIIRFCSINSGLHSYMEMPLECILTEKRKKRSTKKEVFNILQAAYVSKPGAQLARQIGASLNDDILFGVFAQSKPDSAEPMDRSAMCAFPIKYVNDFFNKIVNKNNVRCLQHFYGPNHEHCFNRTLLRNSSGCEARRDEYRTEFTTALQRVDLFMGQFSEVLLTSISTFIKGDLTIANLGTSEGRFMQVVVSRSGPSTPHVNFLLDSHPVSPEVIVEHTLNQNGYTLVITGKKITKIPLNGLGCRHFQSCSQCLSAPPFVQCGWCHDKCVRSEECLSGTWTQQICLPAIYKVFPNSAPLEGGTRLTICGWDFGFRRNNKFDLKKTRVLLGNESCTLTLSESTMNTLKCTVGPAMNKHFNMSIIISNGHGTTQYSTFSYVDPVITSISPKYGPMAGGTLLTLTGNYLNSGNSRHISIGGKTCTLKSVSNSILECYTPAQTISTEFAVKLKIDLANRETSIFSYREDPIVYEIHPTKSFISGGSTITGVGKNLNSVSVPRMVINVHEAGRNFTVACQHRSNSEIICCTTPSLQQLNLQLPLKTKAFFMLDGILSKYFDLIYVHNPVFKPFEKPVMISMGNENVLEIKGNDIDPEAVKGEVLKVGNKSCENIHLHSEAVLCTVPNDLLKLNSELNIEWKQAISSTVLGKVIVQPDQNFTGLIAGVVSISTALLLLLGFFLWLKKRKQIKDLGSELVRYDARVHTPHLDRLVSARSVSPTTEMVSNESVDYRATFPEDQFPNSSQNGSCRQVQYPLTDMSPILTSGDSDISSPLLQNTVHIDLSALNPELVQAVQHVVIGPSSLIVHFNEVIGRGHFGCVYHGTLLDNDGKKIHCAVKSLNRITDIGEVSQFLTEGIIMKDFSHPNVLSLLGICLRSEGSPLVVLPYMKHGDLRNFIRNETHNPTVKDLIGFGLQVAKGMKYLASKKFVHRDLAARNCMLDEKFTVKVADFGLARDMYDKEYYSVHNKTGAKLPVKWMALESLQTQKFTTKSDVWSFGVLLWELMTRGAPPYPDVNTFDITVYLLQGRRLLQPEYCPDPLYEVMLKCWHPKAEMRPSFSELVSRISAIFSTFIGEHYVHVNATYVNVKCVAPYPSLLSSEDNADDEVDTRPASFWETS

B1: In1B: Listeria monocytogenes surface protein of the internalin family that interacts with Met; purified soluble protein (protein, UniProt P0DQD2 31-630, looked up)
Internalin B: AKVQAETITVPTPIKQIFSDDAFAETIKDNLKKKSVTDAVTQNELNSIDQIIANNSDIKSVQGIQYLPNVTKLFLNGNKLTDIKPLANLKNLGWLFLDENKVKDLSSLKDLKKLKSLSLEHNGISDINGLVHLPQLESLYLGNNKITDITVLSRLTKLDTLSLEDNQISDIVPLAGLTKLQNLYLSKNHISDLRALAGLKNLDVLELFSQECLNKPINHQSNLVVPNTVKNTDGSLVTPEIISDDGDYEKPNVKWHLPEFTNEVSFIFYQPVTIGKAKARFHGRVTQPLKEVYTVSYDVDGTVIKTKVEAGTRITAPKPPTKQGYVFKGWYTEKNGGHEWNFNTDYMSGNDFTLYAVFKAETTEKAVNLTRYVKYIRGNAGIYKLPREDNSLKQGTLASHRCKALTVDREARNGGKLWYRLKNIGWTKAENLSLDRYDKMEYDKGVTAYARVRNASGNSVWTKPYNTAGAKHVNKLSVYQGKNMRILREAKTPITTWYQFSIGGKVIGWVDTRALNTFYKQSMEKPTRLTRYVSANKAGESYYKVPVADNPVKRGTLAKYKNQKLIVDCQATIEGQLWYRIRTSSTFIGWTKAANLRAQK
time of maximal In1B-induced ubiquitination of Met ([1]; In1B 5 nM): two
time of new wave of Met ubiquitination after addition of In1B ([1]; In1B 5 nM): 30 min
time at which a new band corresponding to Met appeared after addition of In1B ([1]; In1B 5 nM, anti-Met blot of immunoprecipitates): 15 min
ubiquitination of Met after In1B treatment (re-immunoprecipitation assay) ([1]; In1B two minutes, re-immunoprecipitated anti-Met, blot anti-ubiquitin): induces the ubiquitination of Met
minimal amount of In1B necessary to trigger Met ubiquitination ([1]; increasing amount of In1B for two minutes): 1.75 nM
Met ubiquitination using higher amount of In1B ([1]; two minutes, 3.5 to 80 nM In1B (FIG. 1D)): did not significantly increase
time of maximum of Met phosphorylation and ubiquitination after stimulation [2]: two
